{"source": "patent US20250121082A1", "about": "(SHANDONG BOAN BIOTECHNOLOGY, published 2025)", "binders": {"B1": {"name": "CA149 (antibody, human IgG1, kappa, V domains shown)", "VH": "EVQLVESGGGVVQPGRSLRLSCAASGFTFSSYAMHWVRQAPGKGLEWVAVISFDGSNKYYTDSVKGRFTISRDNSKNTLYLQMNSLRAEDTAVYYCAREVPYYYGSGPFDYWGQGTLVTVSS", "VL": "EIVLTQSPATLSVSPGERATLSCRASQSVSSNLAWYQQKPGQAPRHLIDGASSRASGIPDRFSGSGSGTDFTLTISRLEPEDFAVYYCQQYGSSPPFTFGPGTKVDIKR", "notes": "Intact IgG1; also called CA149 antibody"}, "B2": {"name": "reference antibody hL49 (antibody, human IgG1, kappa, V domains shown)", "VH": "QVQLQESGPGLVKPSETLSLTCTVSGDSITSGYWNWIRQPPGKGLEYIGYISDSGITYYNPSLKSRVTISRDTSKNQYSLKLSSVTAADTAVYYCARRTLATYYAMDYWGQGTLVTVSS", "VL": "DFVMTQSPLSLPVTLGQPASISCRASQSLVHSDGNTYLHWYQQRPGQSPRLLIYRVSNRFSGVPDRFSGSGSGTDFTLKISRVEAEDVGVYYCSQSTHVPPTFGQGTKLEIKR", "notes": "also called H149; hL49 analogy"}, "B3": {"name": "CA13 (antibody, human IgG1, kappa, V domains shown)", "VH": "EVQLVESGGGVVQPGRSLRLSCAASGFTFSSYAMHWVRQAPGKGLEWVAVISYDGSNKYYADSVKGRFTISRDNSKNTLFLQMNSLRAEDTAVYYCARDVYHYGSRSPYYYGMDVWGQGTTVTVSS", "VL": "DIVMTQSPSSLSASVGDRVTITCRASQGISNYLAWFQQKPGKVPKLLIYAASTLQSGVPSRFSGSGSGTDFTLTISSLQPEDVATYYCQKYNSAPFTFGPGTKVDIKR", "notes": "Intact IgG1 from fully human antibody-transgenic mice"}, "B4": {"name": "CA67 (antibody, human IgG1, kappa, V domains shown)", "VH": "B3 VH with F80Y", "VL": "B3 VL with V3Q, G28A, F36Y, Q55H, S56P", "notes": "Intact IgG1"}, "B5": {"name": "CA518 (antibody, human IgG1, kappa, V domains shown)", "VH": "B3 VH with Y60H, A97V", "VL": "B3 VL with V3Q, L11V, N31S, Y32W, F36Y, V43A, T53S", "notes": "Intact IgG1"}, "B6": {"name": "CA185 (antibody, human IgG1, kappa, V domains shown)", "VH": "B1 VH with F53Y, T61A", "VL": "EIVLTQSPGTLSLSPGERATLSCRASQSVSSSSLAWYQQKPGQAPRHLIDGASSRASGIPDRFSGSGSGTDFTLTISRLEPEDFAVYYCQQYGSSYTFGQGTKVDIKR", "notes": "Intact IgG1"}, "B7": {"name": "BA352 (antibody, human IgG1, kappa, V domains shown)", "VH": "EVQLVESGGGVVQPGRSLRLSCAASGFTFSSYAMHWVRQAPGKGLEWVAVISYDGSNKYYADSVKGRFTISRDNSKNTLYLQMNSLRAEDTAVYYCARGPYLAAAGTALTFDIWGQGTMVTVSS", "VL": "DIQMTQSPSAMSASVGDRVTITCRASQGINNYLAWFQQKPGKVPKRLIYAASSLQSGVPSRFSGSGSGTEFTLTISSLQPEDFATYYCLQHNSYPFTFGPGTKVDIKR", "notes": "Intact IgG1"}}, "note": "Numbering of substitutions follows the chain as printed.", "data": [{"biological_target": "T1, Human CD228 protein (human, UniProt P08582 20-708, limits assumed)", "T1 construct": "Recombinant protein made in CHO cells, purified over a Ni column; The printed entry begins with the leader (MRGPSG...) and ends with ten His; also called hCD228; CD228-His protein", "T1 sequence": "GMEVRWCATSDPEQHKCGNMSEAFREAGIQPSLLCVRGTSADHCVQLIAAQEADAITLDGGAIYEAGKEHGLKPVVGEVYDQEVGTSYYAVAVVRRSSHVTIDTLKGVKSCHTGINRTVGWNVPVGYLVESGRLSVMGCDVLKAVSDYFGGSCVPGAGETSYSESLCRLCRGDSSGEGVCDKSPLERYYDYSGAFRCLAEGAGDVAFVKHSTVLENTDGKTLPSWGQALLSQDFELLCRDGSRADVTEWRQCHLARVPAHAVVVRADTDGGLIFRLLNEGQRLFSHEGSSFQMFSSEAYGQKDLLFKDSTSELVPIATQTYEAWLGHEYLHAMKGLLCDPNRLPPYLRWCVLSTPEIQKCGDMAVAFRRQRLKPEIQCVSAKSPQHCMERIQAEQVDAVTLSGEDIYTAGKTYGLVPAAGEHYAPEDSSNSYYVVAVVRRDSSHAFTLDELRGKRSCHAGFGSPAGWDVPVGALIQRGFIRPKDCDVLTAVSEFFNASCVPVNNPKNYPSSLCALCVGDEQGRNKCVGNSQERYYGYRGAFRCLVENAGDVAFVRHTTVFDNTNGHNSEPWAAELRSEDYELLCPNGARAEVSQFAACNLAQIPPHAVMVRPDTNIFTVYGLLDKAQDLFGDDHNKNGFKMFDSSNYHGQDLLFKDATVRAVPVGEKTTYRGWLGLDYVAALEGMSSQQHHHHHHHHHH", "assay": "affinity assay (method not given)", "units": {"Kd": "nM"}, "values": [{"binder": "B1", "Kd": 1.99}]}, {"biological_target": "T1, Human CD228 protein", "assay": "Octet competition on His-chip CD228; competitor: CA149", "procedure": "CD228 proteins were immobilized on His chips at 10 μg/mL with a threshold of 0.5 nm. The first CD228 antibody (30 μg/mL) was immobilized, and the competitive binding of the second CD228 antibody (30 μg/mL) was analyzed. The Octet 8K system was used to analyze the response of antibody 2 and to determine whether antibody 1 and antibody 2 were in competition.\nThe final competition analysis was conducted using the following calculation method: 1—response value/blank value.", "units": {"competition (1-response value/blank value)": "%"}, "values": [{"binder": "B2", "competition (1-response value/blank value)": -6}, {"binder": "B3", "competition (1-response value/blank value)": 101}, {"binder": "B4", "competition (1-response value/blank value)": 103}, {"binder": "B5", "competition (1-response value/blank value)": 101}, {"binder": "B1", "competition (1-response value/blank value)": 99}, {"binder": "B6", "competition (1-response value/blank value)": 98}, {"binder": "B7", "competition (1-response value/blank value)": -2}]}]}
